This is an account of results in the domain aggregation screens of Martell et al. (2025).

This data set can be described thus: soluble fraction after stress (log2 fold change); higher = more stays soluble; pooled small domains, quantitative proteomics. To be noted: stress: pH 4. Put shortly: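 Aggregation propensity is estimated from the fold change in each domain's soluble amount after acid stress. Pooled small-domain libraries were stressed at pH 4, and higher log2 values mean more stayed soluble.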
Regarding “HMNQRQLQIKQMLDVAQEVFLKQLKTVFPDVSEMTIRRDLILLEDMGYAVRTHGGAVSINRF”, the “soluble fraction (log2)” value is -1.2. “HMNQRTATVTASQLNVRSGPSTAYSIVHVLRQGETVEVIGESDGWYQIRLKDGRVGWSSGQYLNLN”: the “soluble fraction (log2)” value is -0.481. The value for “HMNQSAVMAERMKQTKNRILQTAKEIFLEQGYKRTTIRQIVERSGITSGSIYNIFSSKEEIFSALVDDL” was -1.77; that for “HMNQSYQLWIKDDELGPTPRSVGVLNEHFEVDPAALTNYDAELLRRATFGISLEPRGGSPTGQP” was -0.688. For the sequence “HMNQTPQISYSQFIADVRSGQIKDVNIDSDNRTIVGHKFSGEEFTTFSPGDNKLVDELLNYNVEIKTSP”, the “soluble fraction (log2)” value is -0.125. With “HMNREEFLSQLERLLYDIPAQEREEALEYYNGYFDDAGKEKEAEVIQELGSPGKVAAIIKADLSG”, the “soluble fraction (log2)” value is -0.605.

“HMNRETAISIYRILHILEEPYKEVFTLRTLGDLSYREIADIFGKQENWARVTYHRAKLKIREALVS”: the “soluble fraction (log2)” value was -0.71. Consider “HMNRIFQERVVPAELDTLRADKVAASLFSDFSRNELAHWIKMGDLSINGGVKKAKDKLFEGDVLILDVEIV”, for which the “soluble fraction (log2)” value was -0.679. Then “HMNRKILVLLAGKEQITDNVSVMQSIHRYAFINTATINKAQHEILIEKEEIRQEALTLIHEFLK”, with 0.0276. Then “HMNRKLKAKATREKIYKSAEKLFSQNDYNKVSVDAIVEAAGVAKGSFYVHFASKDALIAMLINDH”, with -0.012.

In the case of “HMNRMKLLREQHNLSQTDLAKILNISRQSYNFYENEKRDPDTTMLIRIADFFNVSLDYLLGRTNN”, the “soluble fraction (log2)” value is -0.0385. The value for “HMNRPYVELFSGLGQEEAQQIVQKLQEDEVDYKFSGDSTILVKEDVVDQTKATLVQEGYPKS” was -0.392; that for “HMNSEEINDVRKAVDELPTHLREILLLNYFQQMSYVQISDSLEIPLGTVKSRLHAAVAAFRNAWQSSQEE” was -0.154; that for “HMNSEELFLRRIAQELIDQHGKDLHRIIVVLPSNRSKVFLKKFLFEILGSAFLTPQLMLLPQFVKSIV” was -0.34.

“HMNSFGWESFVGEKGVTDTDLRPSGWIVIKDKRLFALTEGTFIEKGVSVEILSVEGNRIVVREIS”: the “soluble fraction (log2)” value was -0.711. The value for “HMNSHKIIDRLNQMITEKDLSEEMPAITEAFKNNERSAEDLKKYVAENLSKKLNAEEREKFVSLILQYRN” was -0.338. The value for “HMNSILFAITKEGGVVYGGKPVGVNGVRPLVRRLLQSEEMPVILQVDEKADAGLVIRVIDESKLGGASKV” was -0.196.

As for “HMNSIQEQIEKYVYSLAPVTIERYESLKNGDIEDIEFEKLRKSISSKIINEKIDNKKQVAILSHLKKMYSD”, the “soluble fraction (log2)” value was -0.472.

Regarding “HMNSKIIVESIIKSKNGIAKVADLVEGGVSRQSIKKMYADGYIKRISRGYYTLTSEPVSSDEQVISS”, the “soluble fraction (log2)” value came to 0.39.

As for “HMNSKMTYSELITSMENKEVESVKISSSGDVASVKLKNSKTEKEVKIPSLDSFMTYTEQYLKTGEITLEE”, the “soluble fraction (log2)” value is -0.0537.

Turning to “HMNSKMTYSELVTNITNKEVESIKISSTGSTASVKLKNSKSEKEVNIPSLDSFMSYTEEYLKTGDFTLDEE”, the “soluble fraction (log2)” value was -0.824. The value for “HMNSLKNKNNLIALVGASNDKNKYGNKILLDLVSKGHNVVPINPKEDTVAGLKSYNNVSELSEKPSI” was -0.202. Then “HMNSLPFSNFMNEVEAGRVVEVKIQGNNISGVLANGKTFSTYSPNYPELVEKLSSNGVSIVATPQ”, with -0.0501.

Regarding “HMNSRTLAYSDFIRKVDKGEVSAVVIDGEQVQVQTKDGQTFVTIQPQSEQMNDKLVEQLIAKDISVKAERQ”, the “soluble fraction (log2)” value worked out at 0.0565. The value for “HMNSSLFLARQVHALRKKAGLTLQQLSRKSDVSVSTLSKIEKGQLSPTYEKIVSLARGLDVPIAALFHE” was at least 0.43. Take “HMNSSTVDLAKEFLIDLLSSVEKMPASEVQEEAKNAGYSVASIRRAKDNLNIKPFKDGSAWYWKLPSIFK”: the “soluble fraction (log2)” value is -0.447.

On to “HMNSSTYIVTFKVDGEEDIVETYQWGDRIIVPEVEAKDDYVFIGWDAQIPEFMPERNLEFTAI”, for which the “soluble fraction (log2)” value is -1.67. As for “HMNSTNYQVIITANGGLNIRAGASTAYARIGGYAKGTVVTILAESNGFGKTDKGWISLNYTSKDLD”, the “soluble fraction (log2)” value was found to be 0.148. The value for “HMNTAALSLQRRNEIKKWLLEEKTLTVAALSNRFNVTYETIRRDLEILEKEGFLKKVYGGAALNERV” was 0.244; that for “HMNTAIDGLIEKVGMFAMEKKAISVDQVKENFSINGEQAESVIKQLETIGVLGKKNEDGTHTVM” was -0.0986; that for “HMNTDALIGKTGYVTEIVGERHGRIQFSGGEWSARTEGVSIPVGAEVRVDRIDGATAVVSAV” was 0.22.

Turning to “HMNTDVEKQKVFTALFDDYFRRNSMTSLEKQLFLTALKTNFQNAQKTVAKDHPYYATYSLIISAIENYR”, the “soluble fraction (log2)” value is -0.936. In the case of “HMNTEEKILEKEFLMLYSELGLQPKNIYELMENTGLKYEKLVEMLLQLQLKGLVEQPSYNYYSRL”, the “soluble fraction (log2)” value is -2.46. Then “HMNTEEVGSYLKKLRLEHSFTQKELAGKLYITHQAVSNWEKGKALPDIGILSQLGDIYGISIDNLLLK”, with -0.551; and “HMNTEKRVFAGVENTRLDHFLVEQFPEFSRTFIQQMIKSANVIVNGNIEKASYKLREGDTIMTRPM”, with -0.0899; and “HMNTELFTKNLFNKLEVLLGEKNWKSKTAQLLNISSDAFYKKIRNESQLNLHELLLIKDTFKISIDALLDE”, with -0.929. With “HMNTETAVTKAIDQIQVMMDLRNRSVSFTRDQETGTDIIKVIDDNTGDTIRQMPSEELLTFMKNLTQ”, the “soluble fraction (log2)” value was -0.332. The value for “HMNTFKNIFIQEGDLFNLKKNDNQIIFAKEGILINENKKIFRLLNGKIISTNNNRLIGFEFDKIDYNLSN” was -0.0628. Then “HMNTGIPHQEVIKKLYSFAEGGDWKGLKEELNRIKEYTLFYNSVKELADSFEINRLIEKLKTYIF”, with -0.0132.

Turning to “HMNTGLSEREHEIAQLVLQGRTYAEIGAELFISPRTAEHHIGQIRRRLAATSRSDLLAKLRVAMNTTEGAG”, the “soluble fraction (log2)” value was -0.567.

For the sequence “HMNTISYTELIKQIDEGNVEKVEMTVGSTSVKVKLQGQEEEKKAIVPNTQAFVELIQEKTLEGNQIDLKQN”, the “soluble fraction (log2)” value was determined as 0.0768. With “HMNTLSPVRILAILDGRSSMAEWQLAEELGVSIDNLSEILNKMSTDGQIRLVPSEDGRMVVP”, the “soluble fraction (log2)” value was -0.0347. The value for “HMNTPALRQRTQDVPALLIHFAKYFATKGQTPISFAPDFLEALKDYPWPGNVRELRNLVESMVV” was -0.0956; that for “HMNTPHLTPREREVLKGIVDGLINKEIAARMGVSVATVITHRNNLTEKLGTRSVSALTIFAVMHGIVR” was -0.323; that for “HMNTPNYDVLYRGLADADAGQIMEALQKSNIPFKVDSHSGVLLVPADQVHEARLKLASQGLPRG” was 0.00323. Take “HMNTPTLLLYGGKDHSVPEAGIRHLRAHLSANDRGEYRFYPNAPHLLLQSRQWQQVSQDISQWLAMT”: the “soluble fraction (log2)” value amounted to 0.0454.

For “HMNTRWDDAAQTWLRKVIEQQPVLVQISAAKRLRDQAEQRAREAGEEVVTEQHVKRAGLELGFGEP”, the “soluble fraction (log2)” value was -0.239. On to “HMNTSITVPSLKGLSQEAATLKMERLGLHVEVSDTGFVRSLAFGTVLQQSIAPGEKVKPGRLVYITINSD”, for which the “soluble fraction (log2)” value was 0.0638. With “HMNTVAGAISDLSFKVRGSEDIEKLNRLKALSIQAKLDVQGQEEAERLISELEAKYGSLGMTVDKVSGKIA”, the “soluble fraction (log2)” value turned out to be 0.192. Then “HMNTYEIIGGDNRARGPVTGEELSQWIREGRASGHTMARVSDGEHWQPLGSFPEFVGPLQGLPW”, with -0.163.
